Patent US8227212B2, “Cell that expresses a sulfatase and a formylglycine generating enzyme” (Shire Human Genetic Therapies, Inc., priority 2003, dated 2012)

Substrate: CSCC[C@H](NC(C)=O)C(=O)N[C@H](C(=O)N[C@@H](CC(=O)O)C(=O)N[C@@H](Cc1ccccc1)C(=O)N[C@@H](Cc1ccc(O)cc1)C(=O)N[C@H](C(=O)N1CCC[C@H]1C(=O)N[C@H](C(=O)N[C@@H](CO)C(=O)N[C@@H](CC(C)C)C(=O)N[C@@H](CS)C(=O)N[C@H](C(=O)N1CCC[C@H]1C(=O)N[C@@H](CO)C(=O)N[C@@H](CCCNC(=N)N)C(=O)N[C@@H](C)C(=O)N[C@@H](C)C(=O)N[C@@H](CC(C)C)C(=O)N[C@@H](CC(C)C)C(=O)N[C@H](C(=O)NCC(=O)N[C@@H](CCCNC(=N)N)C(=O)N[C@@H](CO)C(N)=O)[C@@H](C)O)[C@@H](C)O)C(C)C)C(C)C)[C@@H](C)O
Test: In vitro assay for FGE with peptide P23 as substrate (MALDI-TOF)
Format: biochemical, bovine
Details: other: standard conditions; pH 9.0; 37.0 °C
Description: For monitoring the activity of FGE, the N-acetylated and C-amidated 23mer peptide P23 ([…]) (SEQ ID NO:33) was used as substrate. The conversion of the Cysteine residue in position 11 to FGly was monitored by MALDI-TOF mass spectrometry. A 6 μM stock solution of P23 in 30% acetonitrile and 0.1% trifluoroacetic acid (TFA) was prepared. Under standard conditions 6 pmol of P23 were incubated at 37° C. with up to 10 μl enzyme in a final volume of 30 μl 50 mM Tris/HCl, pH 9.0, containing 67 mM NaCl, 15 μM CaCl2, 2 mM DTT, and 0.33 mg/ml bovine serum albumin. To stop the enzyme reaction 1.5 μl 10% TFA were added. […] Activity (pmol product/h) was calculated on the basis of the peak height of the product divided by the sum of the peak heights of P23 and the product.
We had developed an assay for determining FGE activity in microsome extracts using in vitro synthesized [^35S] […] The quantitation of the product included tryptic digestion, separation of the peptides by RP-HPLC and identification and quantitation of the [^35S]-labeled FGly containing tryptic peptide by a combination of chemical derivatization to hydrazones, RP-HPLC separation and liquid scintillation counting (Fey et al., J. Biol. Chem., 2001, 276:47021-47028). […] The cysteine and the FGly containing forms of P23 could be identified and quantified by matrix-assisted laser desorption/ionisation time of flight (MALDI-TOF) mass spectrometry. […]

B1: FGE (Bos taurus) (protein)
chain: GEEAGPEAGAPSLVGSCGCGNPQRPGAQGSSAAAHRYSREANAPGSVPGGRPSPPTKMVPIPAGVFTMGTDDPQIKQDGEAPARRVAIDAFYMDAYEVSNAEFEKFVNSTGYLTEAEKFGDSFVFEGMLSEQVKSDIQQAVAAAPWWLPVKGANWRHPEGPDSTVLHRPDHPVLHVSWNDAVAYCTWAGKRLPTEAEWEYSCRGGLQNRLFPWGNKLQPKGQHYANIWQGEFPVTNTGEDGFRGTAPVDAFPPNGYGLYNIVGNAWEWTSDWWTVHHSAEETINPKGPPSGKDRVKKGGSYMCHKSYCYRYRCAARSQNTPDSSASNLGFRCAADHLPTTG
notes: the soluble fraction (reticuloplasm) of bovine testis microsomes served as the starting material; from tissue; host or cells: bovine testis rough microsomes, reticuloplasm
Km: 0.013 µM
